Laboratory results taken from patent US20190292245A1 (published 2019).
Read-outs that look alike come from different tables or passages of the source. Blank lines part the entries; values can stand above or below the binder they belong to.

What was measured:
[1] = molecular target: T1, recombinant tau protein (full-length) (human, UniProt P10636 1-441); assay: SPR (Biacore)
[2] = molecular target: T1, recombinant tau protein (full-length); assay: SPR (Biacore); remark: listed apart in the source

T1 sequence (P10636 other isoform, or with tags, fused parts or gaps): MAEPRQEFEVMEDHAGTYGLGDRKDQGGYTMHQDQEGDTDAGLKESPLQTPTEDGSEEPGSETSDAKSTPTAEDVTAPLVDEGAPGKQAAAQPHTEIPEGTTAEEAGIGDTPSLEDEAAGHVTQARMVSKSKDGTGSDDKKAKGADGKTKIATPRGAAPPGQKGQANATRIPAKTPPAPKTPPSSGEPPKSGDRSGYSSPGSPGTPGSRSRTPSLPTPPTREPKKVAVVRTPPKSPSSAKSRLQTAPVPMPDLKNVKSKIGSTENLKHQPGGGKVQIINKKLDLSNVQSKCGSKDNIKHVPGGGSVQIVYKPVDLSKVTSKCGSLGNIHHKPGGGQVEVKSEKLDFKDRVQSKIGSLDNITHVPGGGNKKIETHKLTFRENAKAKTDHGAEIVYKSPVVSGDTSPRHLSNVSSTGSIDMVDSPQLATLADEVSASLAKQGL

- Kd [1]: 3.91 nM
B1: 1C9 chimeric humanized antibody (antibody, V domains shown)
VH: EVQLQQSGTVLARPGASVKMSCKTSGYTFTNHWMHWVKQRPGQGLEWIGAIDPGNSDTSYNQKFKGQAKLTAVTSASTAFMELSSLTNEDSAVYYCTRRDFFGGEYAVDYWGQGTSVTVSS
VL: DVVMTQTPLSLPVSLGDQASISCRSSQSLVHSNGNTYLHWYLQKPGQSPKLLIYKVSNRFSGVPDRFSGSGSGTDFTLKISRVEAEDLGVYFCSQSTHVPWTFGGGTKLEIK

- Kd [1]: 3.39 nM
- Kd [2]: 9.51 nM
B2: mouse monoclonal antibody 1C9 (antibody, V domains shown)
VH: B1 VH
VL: B1 VL

- Kd [2]: 48 nM
B3: Armanezumab (antibody, V domains shown)
VH: QVQLVQSGAEVKKPGASVKVSCKASGYTFTNHWMHWVRQAPGQGLEWMGAIDPGNSDTSYNQKFKGRVTMTRDTSTSTVYMELSSLRSEDTAVYYCARRDFFGGEYAVDYWGQGTLVTVSS
VL: DIVMTQSPLSLPVTPGEPASISCRSSQSLVHSNGNTYLHWYLQKPGQSPQLLIYKVSNRFSGVPDRFSGSGSGTDFTLKISRVEAEDVGVYYCSQSTHVPWTFGQGTKVEIKR
